Measured values from article PMC6818130.

Legend:
[1] = Western blot, steady-state level, Tet-induced 293 cells; conditions: glycan lost; control: wild-type GILT
[2] = confocal immunofluorescence co-localisation with LAMP1; conditions: glycan lost; control: wild-type GILT
[3] = glycan lost

Gamma-interferon-inducible lysosomal thiol reductase (GILT, IFI30): N95A
decreases: expression_or_secretion [1] | localisation_or_trafficking [2] | other: restriction of viral entry [3]

Gamma-interferon-inducible lysosomal thiol reductase (GILT, IFI30): N108A
decreases: expression_or_secretion [1] | localisation_or_trafficking [2] | other: restriction of viral entry [3]

Gamma-interferon-inducible lysosomal thiol reductase (GILT, IFI30): N63A
decreases: expression_or_secretion [1] | localisation_or_trafficking [2] | other: restriction of viral entry [3]
